Patent US20230060388A1 (SHANGHAI HENLIUS BIOTECH, published 2023)
Substitutions are numbered along the chain they refer to. In names and notes the source's numbering stands. Like-named read-outs stand apart in the source and are kept apart here. One block for each binder: values may come before it.

Tests used:
[1] = biological target: T1, recombinant ECD of human FcγRIIB (human, UniProt P31994 43-217); test: Octet (ForteBio), receptor ECD loaded on the sensor, antibody at 5 concentrations (not given) [h-FcγRIIB binding]
T1 construct: extracellular domain
T1 sequence (looked up): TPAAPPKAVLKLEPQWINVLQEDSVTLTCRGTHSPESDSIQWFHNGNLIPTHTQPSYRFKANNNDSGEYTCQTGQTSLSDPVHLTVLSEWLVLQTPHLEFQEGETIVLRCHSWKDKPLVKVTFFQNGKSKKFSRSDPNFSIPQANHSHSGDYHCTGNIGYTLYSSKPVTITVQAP
Excerpt: (§1) FIG. 12 depicts binding of 2A3-LT-Fc wild type (wt) and Fc mutations (DLE and VLPLL) to human FcγRIIIA, human FcγRIIB and mouse FcγRIV determined using Octet binding assay. Sensors were loaded with recombinant proteins of ECDs of FcγRIIIA, human FcγRIIB and mouse FcγRIV, association and dissociation of 2A3-LT-Fc wt, DLE or VLPLL mutants at 5 different concentrations were detected using ForteBio. Y axis represents association, dissociation & Rmax. X axis represents time in second. Both DLE and VLPLL mutants had enhanced binding affinity to human FcγRIIIA compared to that of wild type, DLE mutant also had enhanced binding affinity to human FcγRIIB, however VLPLL mutant reduced binding affinity to human FcγRIIB All versions had similar affinity to mouse FcγRIV.

[2] = biological target: T2, recombinant ECD of mouse FcγRIV (mouse, UniProt A0A0B4J1G0 21-203); test: Octet (ForteBio), receptor ECD loaded on the sensor, antibody at 5 concentrations (not given) [m- FcγRIV binding]
T2 sequence: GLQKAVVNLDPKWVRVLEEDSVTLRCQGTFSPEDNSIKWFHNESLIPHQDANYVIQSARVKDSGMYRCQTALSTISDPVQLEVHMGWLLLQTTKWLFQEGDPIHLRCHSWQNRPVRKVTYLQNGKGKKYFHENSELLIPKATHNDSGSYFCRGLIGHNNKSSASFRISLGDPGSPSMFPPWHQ
Excerpt: as §1

[3] = biological target: T3, human TIGIT expressed on cells (stably transfected Jurkat cells) (human, UniProt Q495A1 22-244); test: cell-based or functional assay
T3 sequence: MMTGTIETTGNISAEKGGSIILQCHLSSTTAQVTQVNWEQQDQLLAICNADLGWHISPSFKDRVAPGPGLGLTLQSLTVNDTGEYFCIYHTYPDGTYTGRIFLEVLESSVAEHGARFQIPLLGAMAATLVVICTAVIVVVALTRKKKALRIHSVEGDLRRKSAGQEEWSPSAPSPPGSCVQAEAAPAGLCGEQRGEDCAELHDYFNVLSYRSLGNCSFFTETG

[4] = biological target: human FcγRIIIA expressed on transfected Jurkat cells (human, UniProt P08637 17-254); test: cell-based or functional assay
[5] = biological target: T3, human TIGIT expressed on cells (stably …); test: flow cytometry on h-TIGIT Jurkat cells (% binding) with VHH samples heated for 60 min at 25 to 70 °C
Protocol: (§2) FIGS. 6A and 6B depict thermostability tested for representative clones. The VHH antibody samples were heated from 25 to 70° C. for 60 min. Binding of heated samples to human TIGIT was examined using ELISA or whole cell binding. […] Y axis represents OD450 obtained from the ELISA assay. X axis represents temperature for the treatment. […] Y axis represents percentage of binding to h-TIGIT. X axis represents temperature for the treatment.
(§3) The thermostability of 12 representative clones was tested by heat treatment at 25 to 70° C. for 60 min, then the binding of the treated samples to human TIGIT was examined using ELISA and whole cell binding flow cytometry assays, the results of which are shown in FIGS. 6A and 6B. […] Bivalent 2A3 antibody (2A3-Fc) was constructed using human IgG1 CH2 and CH3 domains. The antibody was expressed in ExpiCHO cells and purified by protein A column. Epitope of 2A3-Fc binding to human TIGIT was studied using Octet binding assay in comparison with anti-TIGIT reference antibodies Reference Ab 1 and References Ab 2 (a reference anti-human-TIGIT antibody having the same amino acid sequences of Tiragolumab, which was synthesized in-house based on the disclosed sequences in U.S. 2017/0088613 A1). As shown in FIGS. 7A-7C, 2A3 clone bound to a different epitope compared to Reference Ab 1 and Reference Ab 2.

[6] = biological target: T4, recombinant human TIGIT extracellular domain (ECD) (human, UniProt Q495A1 22-138); test: ELISA on h-TIGIT ECD with VHH samples heated for 60 min at 25 to 70 °C
T4 construct: also called h-TIGIT ECD; recombinant human TIGIT ECD
T4 sequence: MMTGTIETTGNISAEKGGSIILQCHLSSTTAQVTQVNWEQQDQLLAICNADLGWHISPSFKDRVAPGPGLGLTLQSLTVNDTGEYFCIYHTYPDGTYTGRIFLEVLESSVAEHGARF
Protocol: as §2, §3

[7] = biological target: T3, human TIGIT expressed on cells (stably …); test: whole cell binding, flow cytometry
[8] = biological target: T3, human TIGIT expressed on cells (stably …); test: flow cytometry on h-TIGIT transfected Jurkat cells, anti-human IgG Fc Alexa Fluor 488
Excerpt: FIGS. 1A-1C depict whole cell binding of representative VHH bivalent antibodies to human TIGIT determined by flowcytometry assays. […] Y axis represents Mean Fluorescence Intensity of AlexaFlour 488. X axis represents antibody concentrations in nanomolar. 2B7, 1G1, 1C12, 3G6, 2B10, 3G7, 3G10, 13H11, and 15A5 are VHH clones of anti-human TIGIT. FIG. 1C is a schematic of the structure of a TIGIT VHH bivalent antibody.
Binding affinities of the bivalent clones to human TIGIT transfected Jurkat cells were confirmed by flowcytometry assays. Jurkat cells stably expressing human TIGIT and NFAT reporter gene were established. Specifically, Jurkat cells were transfected with human TIGIT expression vector by electroporation, and cells stably expressing human TIGIT were selected by 1 μg/ml puromycin during cell culture. Representative antibody clones were incubated at different concentrations with h-TIGIT stably expressing Jurkat cells (0.2×10^6/ml) in 100 μl/well in 96-well plate in FACS buffer (PBS with 1.5% FBS) for 30 min. After washing, Alexaflour 488 conjugated anti-human IgG Fc secondary antibody (Alexa Fluor® 488 AffiniPure Goat Anti-Human IgG, Fcγ fragment specific, Jackson labs, 1:500 dilution) was added and incubated for 30 min. After washing, mean fluorescence intensity was measured using CytoFlex (Beckman Coulter) by gating live cell population. Binding affinity was calculated using GraphPad Prism.

[9] = biological target: T3, human TIGIT expressed on cells (stably …); test: as above; remark: listed apart in the source
Excerpt: FIGS. 3A and 3B depict whole cell binding of humanized 1C12 and 1G1 clones to human TIGIT determined by flowcytometry assays. 1C12-chimeric is an antibody with Llama VHH sequence of 1C12 clone and human IgG1 CH2 and CH3 domains, 1C12 (F-EREF), 1C12 (F-EREW) and 1C12 (F-GLEW) are humanized versions of 1C12 clone with difference of mutations in Framework 2. 1G1-chimeric is an antibody with Llama VHH sequence of 1G1 clone and human IgG1 CH2 and CH3 domains. 1G1 (F-G-ERES), 1G1 (F-A-ERES), 1G1 (F-A-EREW) and 1G1 (F-A-GLEW) are four different versions of humanized 1G1 clones with different mutations in framework 2. Y axis is values of Mean Fluorescence Intensity of AlexaFlour 488. X axis is values of antibody concentrations in nanomolar.
The binding affinities of the humanized bivalent antibodies to human TIGIT were determined by whole cell binding to h-TIGIT stably expressed on Jurkat cells. Briefly, antibodies were incubated with h-TIGIT transfected Jurkat cells (0.2×10⁶/well in 100 μl) for 30 min in FACS buffer. The cells were washed once, then incubated with anti-human IgG Fc AlexaFluor488 (1:500). Mean fluorescence intensity was determined by CytoFlex, and binding affinities of antibodies to h-TIGIT were calculated using non-liner regression by GraphPad Prism 8.0 as shown in FIG. 3A.

Sequence of human FcγRIIIA expressed on transfected Jurkat cells (P08637 17-254): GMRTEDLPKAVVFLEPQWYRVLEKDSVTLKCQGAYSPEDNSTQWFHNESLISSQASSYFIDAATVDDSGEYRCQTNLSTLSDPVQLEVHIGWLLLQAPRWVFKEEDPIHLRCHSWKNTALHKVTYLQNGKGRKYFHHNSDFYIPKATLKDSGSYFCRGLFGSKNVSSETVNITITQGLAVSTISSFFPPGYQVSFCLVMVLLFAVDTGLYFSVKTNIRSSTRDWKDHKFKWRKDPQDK

binding result [1]: binds | binding result [2]: binds
B1: 2A3-LT-Fc VLPLL (Fc mutations L235V, F243L, R292P, Y300L, P396L) (Fc fusion)
chain: QVQLVESGGGVVQPGRSLRLSCAASGGSFSSYPMGWFRQAPGKERESVAAISSDLRFTYYADSVKGRFTISRDNSKNTLYLQMNSLRAEDTAVYYCAARTSGVGYYSRAQWYDYWGQGTLVTVSSEPKSCDKTHTCPPCPAPELVGGPSVFLLPPKPKDTLMISRTPEVTCVVVDVSHEDPEVKFNWYVDGVEVHNAKTKPPEEQYNSTLRVVSVLTVLHQDWLNGKEYKCKVSNKALPAPIEKTISKAKGQPREPQVYTLPPSREEMTKNQVSLTCLVKGFYPSDIAVEWESNGQPENNYKTTPLVLDSDGSFFLYSKLTVDKSRWQQGNVFSCSVMHEALHNHYTQKSLSLSPGK
notes: also called VLPLL mutant; VPVLL (as misprinted)

binding result [7]: binds
B4: 2A3 MI (hotspot modified 2A3) (VHH)
VHH: QVQLVESGGGVVQPGRSLRLSCAASGGSFSSYPMGWFRQAPGKERESVAAISSDIRFTYYADSVKGRFTISRDNSKNTLYLQMNSLRAEDTAVYYCAARDSGVGYYSRAQWYDYWGQGTLVTVSS

binding result [7]: binds
B5: 2A3 ML (hotspot modified 2A3) (VHH)
VHH: B4 VHH with I55L

binding result [7]: binds
B6: 2A3 ML_DE (hotspot modified 2A3) (VHH)
VHH: B4 VHH with I55L, D100E

binding result [5]: binds | binding result [6]: binds
B7: 6F12 VHH (VHH)
VHH: B4 VHH with G27P, S30T, I55G, T58K, R99E, V103S

binding result [5]: binds | binding result [6]: binds
B8: 7F6 VHH (VHH)
VHH: B4 VHH with G27P, S28M, I55P, V103S

EC50 (read off the curve) [8]: ~0.06 nM
B12: 15A5 bivalent VHH antibody (Fc fusion, not shown: small tags and cut ends)
chain: QVQLVESGGGLVQAGGSLRLSCAASERTFSSFAMGWFRQAPGKEREVVAAIDPSGRYIYYKDSVKGRFTMSRDNAKSTVYLQMNSLKPDDTARYYCAARIRGEGYYTRSSFYHYWGQGTQVTVSS

Further lines, the binder ahead of its results:

B2: 2A3-LT-Fc-DLE (Fc mutations S239D, A330L, I332E) (Fc fusion)
chain: B1 chain with V145L, S149D, L153F, P202R, L210Y, A240L, I242E, L306P
notes: I332E is printed as 1332E; also called DLE mutant
EC50 (nM), TIGIT blockade NFAT reporter, Average [3]: 0.97 nM | EC50 (nM), TIGIT blockade NFAT reporter, Exp 1 [3]: 0.67 nM | EC50 (nM), TIGIT blockade NFAT reporter, Exp 2 [3]: 0.92 nM | EC50 (nM), TIGIT blockade NFAT reporter, Exp 3 [3]: 1.32 nM | binding result [1]: binds | EC50 (nM), FcγRIIIA-mediated NFAT reporter, Average [4]: 0.024 nM | EC50 (nM), FcγRIIIA-mediated NFAT reporter, Exp 1 [4]: 0.027 nM | EC50 (nM), FcγRIIIA-mediated NFAT reporter, Exp 2 [4]: 0.0295 nM | EC50 (nM), FcγRIIIA-mediated NFAT reporter, Exp 3 [4]: 0.018 nM | EC50 (nM), FcγRIIIA-mediated NFAT reporter, Exp 4 [4]: 0.02 nM | binding result [2]: binds

B3: 1A8 VHH (VHH)
VHH: B4 VHH with G27P, D54R, I55G, V103S
binding result [5]: binds | binding result [6]: binds

B9: 1G1 bivalent VHH antibody (1G1-chimeric) (Fc fusion)
chain: QVQLVESGGGLVQAGDSLRLSCVASGPSFSSYPMGWFRQGPGKERESVAAISSDGRFTYYAASVKGRFTISKDNAKSAAFLQMNSLKPEDTAVYYCAARDSGSGYYSRAQWYDYWGQGTLVTVSS
notes: Llama VHH of 1G1 with human IgG1 CH2 and CH3; also called chimeric parental clone; not shown: human IgG1 CH2 and CH3 domains
EC50 (read off the curve) [8]: ~0.09 nM | EC50 (read off the curve) [9]: ~0.07 nM

B10: 13H11 bivalent VHH antibody (Fc fusion, not shown: small tags and cut ends)
chain: B9 chain with D16G, V23A, P27L, S28T, S31M, P33A, L120Q
EC50 (read off the curve) [8]: ~0.2 nM

B11: 1C12 bivalent VHH antibody (1C12-chimeric) (Fc fusion)
chain: QVQLVESGGGLVQTGDSLRLSCAASSRIFSRYGMGWFRQAPGKEREFVAAISWNGASTTYTDSVKGRFTISRDSAENTTYLQINSLRPEDTAVYYCAADPWGAVKLGTAEYEYWGQGTQVTVSS
notes: Llama VHH of 1C12 with human IgG1 CH2 and CH3; also called chimeric parental clone; not shown: human IgG1 CH2 and CH3 domains
EC50 (read off the curve) [8]: ~0.04 nM | EC50 (read off the curve) [9]: ~0.03 nM

B13: 3G6 bivalent VHH antibody (Fc fusion, not shown: small tags and cut ends)
chain: QVQLVESGGGLVQAGGSLSLSCAASGSIFGISVMGWYRQAPGEQRDLVATLTRAGLTTYGDSVKGRFSISRDSAKNTVYLQMNNLKPEDTAVYYCHANIMESAASTFGRYWGQGTQVTVSS
EC50 (read off the curve) [8]: ~0.8 nM
